For 72 sequences, protein stability index results are on record in the supplement of paper PMC10567573.

The data set is described as follows: protein stability index of a GFP-peptide fusion (GPS, HEK-293T) (PSI 1-6); higher = more stable.
[1] abbreviates: treatment: DMSO, c terminus: a fixed tail appended.
The mark [2] stands for this setting: treatment: MLN4924 1 uM, 8 h, c terminus: a fixed tail appended.

± gives the standard deviation.
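Note: 24-mer peptide tiles fused after GFP, lentivirally expressed, FACS-sorted into six equal bins by GFP/DsRed ratio, decoded by Illumina sequencing, PSI is the read-weighted mean bin number.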

As for EYMKNLLKVGGILVMPLEEKLTKI [PCMTD2], the protein stability index runs as follows: under setting [1], 2.73 ± 0.36; under setting [2], 2.13 ± 0.33. EYVAIKLEPMKSRAPQLHLEYRFY [CSNK1G3]: the protein stability index runs as follows: under setting [1], 3.3 ± 0.41; under setting [2], 2.93 ± 0.64.

FAWPFYQPVDAIKLNLPDYHKIIK [BRD3]: the protein stability index amounted to 2.24 ± 0.67 under setting [1] and 2.19 ± 0.25 under setting [2].

Turning to FDDGDDIMATLGFGDSPKAEKRQI [FBF1], the protein stability index runs as follows: under setting [1], 3.97 ± 0.24; under setting [2], 4.32 ± 0.19. On to FDDYSATLPLTLIVILENIAVAWI [SLC6A17], for which the protein stability index by setting is: under setting [1], 2.69 ± 0.44; under setting [2], 3.28 ± 0.71. For the sequence FEEFLVMMVRQMKEDAKGKSEEEL [TNNC2], the protein stability index under setting [1] came out at 3.48 ± 0.37 and the protein stability index under setting [2] was 3.28 ± 0.35.

For the sequence FFPWREAKPGSTEKGLPLRKTHVL [MFSD9], the protein stability index is, setting by setting: under setting [1], 2.72 ± 0.28; under setting [2], 2.82 ± 0.076. FGNRIKVLRSRIRFIHLVTGCVLG [POMT2] had a protein stability index under setting [1] of 2.57 ± 0.38 and a protein stability index under setting [2] of 2.23 ± 0.45. FGPDSKSSALACTLPTLPAKVYVG [NCF4]: the protein stability index amounted to 2.74 ± 0.12 under setting [1] and 3.03 ± 0.43 under setting [2]. In the case of FGSSVPEKQSRCVNIEWHRFRFGQ [WSB1], the protein stability index runs as follows: under setting [1], 2.07 ± 0.34; under setting [2], 2.12 ± 0.24. Turning to FIEALIQQYQEQLDKSTKLVETAI [TRIM63], the protein stability index reads like this: under setting [1], 2.66 ± 0.52; under setting [2], 2.14 ± 0.39. For FISRTSIPNAASEEGDEDDWASNK [WEE1], the protein stability index was 4.3 ± 0.32 under setting [1] and 4.73 ± 0.31 under setting [2]. FKHILRTEGAFGLYRGLAPNFMKV [SLC25A25]: the protein stability index stood at 2.18 ± 0.31 under setting [1] and 2.29 ± 0.32 under setting [2]. FLFAKLFSHITSARKARKYEIPHF [PHTF1]: the protein stability index by setting is: under setting [1], 3 ± 0.43; under setting [2], 2.79 ± 0.62.

Regarding FLPFLLCAVLLSAVQAQAGWLQHD [FADS1], the protein stability index was 2.73 ± 0.23 under setting [1] and 3.02 ± 0.66 under setting [2]. In the case of FLTILPEELQSWVRGHHPKSGEEA [ZNF232], the protein stability index under setting [1] came out at 3.7 ± 0.18 and the protein stability index under setting [2] is 3.56 ± 0.35. For the sequence FPKDTLMNLHVYISEHEHFTDFNA [CLPTM1], the protein stability index amounted to 2.37 ± 0.24 under setting [1] and 1.99 ± 0.42 under setting [2].

Turning to FPSAGQAQAAVQGPVGTDFKPLNS [ZNF207], the protein stability index runs as follows: under setting [1], 3.67 ± 0.45; under setting [2], 4.16 ± 0.4. FRLKTINLQSLINNEIPDCYTFSV [MCOLN1]: the protein stability index worked out at 2.76 ± 0.41 under setting [1] and 2.51 ± 0.39 under setting [2]. As to FRLLNLKNDSLRKRYDGLKYDVKK [TSN], the protein stability index under setting [1] came to 2.85 ± 0.21 and the protein stability index under setting [2] is 2.94 ± 0.32.

Take FRRFAVHGDARATGREMHGKNWSK [TPPP]: the protein stability index is, setting by setting: under setting [1], 3.62 ± 0.12; under setting [2], 3.65 ± 0.33.

Take FSAYIDSMAAVPTLELCHDELFAD [CEBPD]: the protein stability index runs as follows: under setting [1], 3.29 ± 0.37; under setting [2], 3.1 ± 0.3. On to FSGCLNCSKVSELTERLKVLEAKM [EMID1], for which the protein stability index reads like this: under setting [1], 2.83 ± 0.29; under setting [2], 2.926 ± 0.029.

FSGDGEYIVAGSARQHALYIWEKS [RBBP5]: the protein stability index by setting is: under setting [1], 2.59 ± 0.32; under setting [2], 2.57 ± 0.32. In the same order, the values of FSGRMEVLTDSEGWILIDRCGKHF [KCTD10] are 2.57 ± 0.28 and 2.77 ± 0.4.

Regarding FTKANFWYQPSFHGVDLSALRGAA [CARM1], the protein stability index under setting [1] was 2.38 ± 0.83 and the protein stability index under setting [2] was determined as 1.92 ± 0.3. Consider FVAENSSLHPESGQENDATSPHFS [CD69], for which the protein stability index was 3.74 ± 0.56 under setting [1] and 4.23 ± 0.42 under setting [2]. For the sequence FVEKNPTIVNFPITNVDLREYLSE [USP39], the protein stability index runs as follows: under setting [1], 2.73 ± 0.66; under setting [2], 3.01 ± 1. FVHGLEDEMYEVRIAAVEALCMLA [INTS4] showed a protein stability index under setting [1] of 2.34 ± 0.61 and a protein stability index under setting [2] of 2.23 ± 0.46.

In the case of FVQDVLFVLQAIGIPGWGFSGWIS [SCAMP3], the protein stability index runs as follows: under setting [1], 3.33 ± 0.35; under setting [2], 2.73 ± 0.33.

Consider GAAGRSHHLDEDEERERIERVRRI [KCTD10], for which the protein stability index under setting [1] was 5.31 ± 0.23 and the protein stability index under setting [2] is 5.07 ± 0.46. Turning to GAFLRTCLLSSNSRSLLTGGYNLA [TLE6], the protein stability index under setting [1] turned out to be 2.72 ± 0.32 and the protein stability index under setting [2] was found to be 2.79 ± 1.1. For GAPSVGQPGAGFGMPPAGTGMPMM [SNAP91], in that order: 3.61 ± 0.23 and 3.76 ± 0.23.

On to GARLGGFNFVSTPKCSCGQLAAVH [RNF180], for which the protein stability index under setting [1] was determined as 2.36 ± 0.55 and the protein stability index under setting [2] was 2.54 ± 0.21.

Consider GDIASGYHYGVASCEACKAFFKRT [ESRRG], for which the protein stability index is, setting by setting: under setting [1], 2.76 ± 0.38; under setting [2], 3.02 ± 0.41. Take GDLSPGHGASAPSVSREARQTVPP [PWWP2B]: the protein stability index reads like this: under setting [1], 5.03 ± 0.17; under setting [2], 5.25 ± 0.077. As to GDVHTVRKMLEQGYSPNGRDANGW [ASB7], the protein stability index amounted to 3.51 ± 0.23 under setting [1] and 3.71 ± 0.24 under setting [2]. In the case of GEAAGSSLIGHLQTLSPDMQGAYC [DUSP5], the protein stability index runs as follows: under setting [1], 3.82 ± 0.34; under setting [2], 3.87 ± 0.26. On to GEFPSPVSISIISSTSGGSGYGFR [KRT71], for which the protein stability index worked out at 2.65 ± 0.34 under setting [1] and 3.04 ± 0.64 under setting [2]. In the same order, the values of GEGLRIYWGSPEEQSLLSRWNPWS [TPRG1] are 2.28 ± 0.2 and 1.9 ± 0.35. For the sequence GEKEEEDKDDEEKPKIEDVGSDEE [HSP90AB1], the protein stability index stood at 5.6 ± 0.24 under setting [1] and 5.77 ± 0.12 under setting [2].

GEPLEKVASVGNSRPTGQQLESLG [KISS1]: the protein stability index stood at 5.04 ± 0.25 under setting [1] and 5.1 ± 0.13 under setting [2].

With GFENMDFFTLDLEHIADALRAIDF [TRIM63], the protein stability index by setting is: under setting [1], 2.11 ± 0.17; under setting [2], 2.25 ± 0.35. GGGFGGGSCQLGGGRGVSTCSTRF [KRT13]: the protein stability index runs as follows: under setting [1], 3.5 ± 0.17; under setting [2], 3.59 ± 0.21. Sequence GGLIYWIGLTKAGMEGDWSWVDDT [CD207] yielded a protein stability index under setting [1] of 2.12 ± 0.7 and a protein stability index under setting [2] of 3.07 ± 1.4. As for GGQITDEMAEQLMTLAYDNGINLF [KCNAB2], the protein stability index amounted to 2.79 ± 0.17 under setting [1] and 2.9 ± 0.35 under setting [2].

Sequence GGRPGGRGAPAVQQNIPSTLLQDH [WAS] returned a protein stability index under setting [1] of 4.81 ± 0.13 and a protein stability index under setting [2] of 4.77 ± 0.23.

GGSHPSRPNSRHTPSFSGDSSSSC [VDR] gave a protein stability index under setting [1] of 4.75 ± 0.28 and a protein stability index under setting [2] of 4.73 ± 0.19. GGYAIAVVLLQGAELLLAARLLGA [TSPAN10]: the protein stability index was 2.81 ± 0.53 under setting [1] and 2.96 ± 0.32 under setting [2]. Take GHDKCVSWMCTRSGNMLGRHFFTS [WDFY1]: the protein stability index runs as follows: under setting [1], 2.35 ± 0.36; under setting [2], 2.35 ± 0.18. Regarding GHIILNSMHKYQPRLHIVKADENN [TBX5], the protein stability index reads like this: under setting [1], 2.82 ± 0.48; under setting [2], 2.95 ± 0.018. As for GHMLQHHGNSGHPLVLSYIDLSAW [HDAC6], the protein stability index reads like this: under setting [1], 2.24 ± 0.33; under setting [2], 1.85 ± 0.19. On to GIGDMAFEGDMGAAGGDGELGSPL [PSD2], for which the protein stability index was 5.37 ± 0.25 under setting [1] and 5.46 ± 0.16 under setting [2].

In the case of GISVPSGLFVPSLLCGAAFGRLVA [CLCN6], the protein stability index reads like this: under setting [1], 2.62 ± 1.2; under setting [2], 2.51 ± 0.97.

Sequence GKKQVPCFASMLTKKLHFFPKSN [CASP6] gave a protein stability index (treatment: DMSO, c terminus: native) of 2.82 ± 0.27 and a protein stability index (treatment: MLN4924 1 uM, 8 h, c terminus: native) of 3.51 ± 0.69. As for GKKVAVVLMDTQGAFDSQSTVKDC [ATL3], the protein stability index came out at 3.46 ± 0.87 under setting [1] and 3.66 ± 0.44 under setting [2]. Consider GKLKAPPKPCAGNQGTQITVEDLF [MLH1], for which the protein stability index under setting [2] was 3.65 ± 0.42. As to GLASWPLARGIHVAGILSLLLGTA [POMT2], the protein stability index turned out to be 2.52 ± 0.52 under setting [1] and 2.18 ± 0.49 under setting [2].

Regarding GNEKITMQNLNDRLASYLDKVRAL [KRT15], the protein stability index is 2.6 ± 0.73 under setting [1] and 2.78 ± 0.5 under setting [2]. In the same order, the values of GNLSVLDVGCISVTVPSMLSRLLS [OR3A1] are 2.09 ± 0.49 and 2.29 ± 0.18. Turning to GPLFNFDVHDDVRLLSDATVEKDE [FAM50A], the protein stability index amounted to 5.23 ± 0.17 under setting [1] and 5.43 ± 0.11 under setting [2]. With GQCVQAFETHESDINSVRYYPSGD [GNB5], the protein stability index amounted to 4.52 ± 0.12 under setting [1] and 4.46 ± 0.093 under setting [2].

As for GQKLVVPGLLGSMALSNHYRSEDL [FBXO3], the protein stability index runs as follows: under setting [1], 2.92 ± 0.21; under setting [2], 3.17 ± 0.35. Consider GQRFYSRVLSPLHRGPSGHTEASA, for which the protein stability index runs as follows: under setting [1], 3.74 ± 0.045; under setting [2], 3.79 ± 0.29. In the case of GQTYVDAGYEVDKIAQNLDFVNLM [CHIT1], the protein stability index reads like this: under setting [1], 3.01 ± 0.27; under setting [2], 3.23 ± 0.45. Sequence GRSREELDELTGEVAGGGTPLLIA [FEM1A] had a protein stability index under setting [1] of 4.6 ± 0.26 and a protein stability index under setting [2] of 4.77 ± 0.26. In the case of GSAAGHVLVKDNGLGCKDLDLIFH [TENT5C], the protein stability index amounted to 2.59 ± 0.32 under setting [1] and 2.84 ± 0.44 under setting [2]. For GSEKVTMQNLNDRLASYLDKVRAL [KRT16], in that order: 2.88 ± 0.2 and 2.89 ± 0.25. In the same order, the values of GSESYKSSAGSAEQTAPGDSTGYM [EHMT1] are 5.16 ± 0.25 and 5.21 ± 0.3. Consider GTAITSQYLAERYKVNTPMLQSFI [SLC35F2], for which the protein stability index is 2.58 ± 0.57 under setting [1] and 2.26 ± 0.38 under setting [2]. GTGLVLDEQLNEFHCLWDDSFPEG [HDAC6]: the protein stability index under setting [1] stood at 4.12 ± 0.34 and the protein stability index under setting [2] was determined as 3.96 ± 0.16.

In the case of GTWVTFGGQITDEMAEQLMTLAYD [KCNAB2], the protein stability index by setting is: under setting [1], 2.17 ± 0.37; under setting [2], 2.28 ± 0.29.
